Measurements published in US20250090677A1 (MULTITUDE THERAPEUTICS, published 2025).

Experiments:
Human CDH6-ECD-His = target: T1, Human CDH6-ECD-His (human, UniProt P55285 54-615); assay: BLI (Octet), antibody on AHC sensor, antigen 3.13-100 nM, 1:1 model
T1 construct: extracellular domain; Bought protein; also called human CDH6-ECD-His recombinant protein; Human CDH6-EC6D-His; not shown: His tag
T1 sequence (looked up): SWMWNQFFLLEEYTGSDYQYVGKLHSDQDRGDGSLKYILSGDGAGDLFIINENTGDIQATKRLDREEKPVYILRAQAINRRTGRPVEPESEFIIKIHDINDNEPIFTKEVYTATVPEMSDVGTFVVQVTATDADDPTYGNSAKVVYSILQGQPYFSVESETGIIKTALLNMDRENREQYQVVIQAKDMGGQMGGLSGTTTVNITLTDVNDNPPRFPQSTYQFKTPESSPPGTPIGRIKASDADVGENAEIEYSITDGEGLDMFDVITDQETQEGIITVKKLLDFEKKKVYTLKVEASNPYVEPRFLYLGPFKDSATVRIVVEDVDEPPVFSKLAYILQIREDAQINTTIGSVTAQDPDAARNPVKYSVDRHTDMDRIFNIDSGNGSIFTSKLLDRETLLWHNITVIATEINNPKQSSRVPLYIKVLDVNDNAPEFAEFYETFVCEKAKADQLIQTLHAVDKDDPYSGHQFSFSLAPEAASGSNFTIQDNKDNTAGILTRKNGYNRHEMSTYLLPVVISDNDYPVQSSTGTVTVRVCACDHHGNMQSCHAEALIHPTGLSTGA
Description: (§1) Binding affinities of CL069707-H1L1 and Ch069707 were measured using the Octet® system based on Bio-Layer Interferometry (BLI) technique. Antibodies were loaded to AHC (Anti-hIgG Fc Capture) at 100 nM concentration. […] From the six different binding curves obtained from each antigen concentration, binding constants (KD) were calculated based on the 1:1 binding model. CL069707-H1L1 and Ch069707 binds to human CDH6-ECD-His antigen with similar affinity. CL069707-H1L1 binds to human CDH6-ECD-His and cyno monkey CDH6-ECD-His antigens with similar affinity.

cyno monkey CDH6-ECD-His = target: T2, cyno monkey CDH6-ECD-His (cyno monkey, UniProt A0A2K5TW62 54-615); assay: as above
T2 construct: extracellular domain; Bought protein; also called Cyno CDH6-ECD-His; not shown: His tag
T2 sequence: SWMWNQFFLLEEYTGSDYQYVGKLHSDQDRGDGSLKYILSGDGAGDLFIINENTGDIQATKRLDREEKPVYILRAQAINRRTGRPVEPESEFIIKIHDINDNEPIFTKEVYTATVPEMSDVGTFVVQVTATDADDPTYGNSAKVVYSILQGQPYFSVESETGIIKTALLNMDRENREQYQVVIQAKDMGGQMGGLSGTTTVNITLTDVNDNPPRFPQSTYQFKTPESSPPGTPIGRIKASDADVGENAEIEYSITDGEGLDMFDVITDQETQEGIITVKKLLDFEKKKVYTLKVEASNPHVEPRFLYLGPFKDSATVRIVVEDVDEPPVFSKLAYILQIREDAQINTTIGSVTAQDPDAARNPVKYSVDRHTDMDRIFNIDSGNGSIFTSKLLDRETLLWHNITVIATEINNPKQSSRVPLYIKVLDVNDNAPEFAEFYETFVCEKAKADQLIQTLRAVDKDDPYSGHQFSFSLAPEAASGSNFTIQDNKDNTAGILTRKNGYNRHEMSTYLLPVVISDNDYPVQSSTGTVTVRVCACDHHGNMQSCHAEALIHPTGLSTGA
Description: as §1

[1] = target: T3, CDH6 on the cell surface of OVCAR-3 cells (human ovarian cancer cells) (human, UniProt P55285 54-790); assay: flow cytometry (FACS) on OVCAR-3 cells, antibody titration, labelled secondary antibody, MFI
T3 construct: whole, on cells; also called CDH6-positive human ovarian cancer cell line OVCAR-3
T3 sequence (looked up): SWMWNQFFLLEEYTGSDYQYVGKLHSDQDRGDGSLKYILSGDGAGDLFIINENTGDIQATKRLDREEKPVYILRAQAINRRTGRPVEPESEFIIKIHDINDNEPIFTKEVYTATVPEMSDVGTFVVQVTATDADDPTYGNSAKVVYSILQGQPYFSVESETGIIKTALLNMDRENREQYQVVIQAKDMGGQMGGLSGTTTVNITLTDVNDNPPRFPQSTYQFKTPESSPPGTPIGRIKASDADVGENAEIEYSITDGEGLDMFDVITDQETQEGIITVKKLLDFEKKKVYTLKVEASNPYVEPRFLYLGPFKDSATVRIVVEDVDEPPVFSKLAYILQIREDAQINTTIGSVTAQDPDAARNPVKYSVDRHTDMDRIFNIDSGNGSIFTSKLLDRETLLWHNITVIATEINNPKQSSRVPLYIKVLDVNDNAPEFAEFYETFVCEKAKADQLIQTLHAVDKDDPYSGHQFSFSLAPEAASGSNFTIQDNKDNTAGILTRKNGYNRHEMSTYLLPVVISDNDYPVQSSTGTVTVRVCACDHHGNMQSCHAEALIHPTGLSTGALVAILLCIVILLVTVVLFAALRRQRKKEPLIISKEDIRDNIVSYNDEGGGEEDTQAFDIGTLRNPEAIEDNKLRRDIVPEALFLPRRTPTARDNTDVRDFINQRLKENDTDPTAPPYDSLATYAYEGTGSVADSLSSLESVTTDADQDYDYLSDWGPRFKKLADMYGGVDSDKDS
Description: The binding EC50 of the humanized antibodies on tumor cell were tested as follow. Human ovarian cancer cell line OVCAR-3(purchased from National Collection of Authenticated Cell Cultures) cell culture was maintained in vitro as independent monolayer cultures at 37° C. in an atmosphere of 5% CO₂. The cells were harvested using trypsin-EDTA partial digestion followed by centrifugation at 1000 rpm for 5 minutes. The cell was resuspended in cold PBS and serial dilution of Ch069707 and CL069707-H1L1, CL069707-H1L2, CL069707-H2L1 and CL069707-H2L2 antibodies were added. Ch069707 antibody was a chimeric antibody. The variable regions were the same as those of CL069707, and the constant region was the same as human IgG1 constant regions (SEQ ID NO: 70 and SEQ ID NO: 71). The cell solutions were mixed, incubated at 4° C. and washed with cold PBS prior to addition of secondary antibody conjugates (for detection purposes). After incubation at 4° C., the cells were washed with PBS, and then subjected to flow cytometry (FACS) analysis.

Kd (Human CDH6-ECD-His): 2.28 nM
Kd (cyno monkey CDH6-ECD-His): 2.19 nM
EC50 (read off the curve) [1]: ~0.7 nM
B1: Ch069707 (antibody, human IgG1, kappa, V domains shown)
VH: EVHLVESGGGLVQPKGSLKLSCVASGFTFTTYAMNWVRQAPGKGLEWVARIRIKNNNYATYYADSVTDRFTISRDDSQSMLYLQMNNLKTEDTAMYYCVRPDYGNYGLAYWGQGTLVTVSA
VL: EIVLTQSPTTMAASPGEKITITCSASSSISSHYLHWYQQKPGFSPKLLIYRSFYLASGVPLRFTGSGSGTSYSLTIGTMEAEDVATYYCQQDIVPLTFGAGTKLELKR
notes: also called anti-CDH6 chimeric antibody Ch069707
